Reference: paper PMC10115451 (eLife, 2023)

Tests used:
[1] = target: MAPV Gn^H/Gc (linked Maporal virus Gn head domain and Gc ectodomain) (Maporal virus, strain HV-97021050, UniProt Q5MYC0); test: ELISA; conditions: both partners purified
[2] = target: T1, ANDV Gn^B (Andes virus Gn base domain) (Andes virus, NP_604472.1 (Chile-9717869), UniProt Q9E006); test: ELISA; conditions: both partners purified
T1 construct: source: Drosophila S2 cells, purified

[3] = target: T2, ANDV Gc (Andes virus Gc ectodomain) (Andes virus, NP_604472.1 (Chile-9717869), UniProt Q9E006); test: ELISA; conditions: both partners purified
T2 construct: source: Drosophila S2 cells, purified
T2 sequence (Q9E006 652-1107): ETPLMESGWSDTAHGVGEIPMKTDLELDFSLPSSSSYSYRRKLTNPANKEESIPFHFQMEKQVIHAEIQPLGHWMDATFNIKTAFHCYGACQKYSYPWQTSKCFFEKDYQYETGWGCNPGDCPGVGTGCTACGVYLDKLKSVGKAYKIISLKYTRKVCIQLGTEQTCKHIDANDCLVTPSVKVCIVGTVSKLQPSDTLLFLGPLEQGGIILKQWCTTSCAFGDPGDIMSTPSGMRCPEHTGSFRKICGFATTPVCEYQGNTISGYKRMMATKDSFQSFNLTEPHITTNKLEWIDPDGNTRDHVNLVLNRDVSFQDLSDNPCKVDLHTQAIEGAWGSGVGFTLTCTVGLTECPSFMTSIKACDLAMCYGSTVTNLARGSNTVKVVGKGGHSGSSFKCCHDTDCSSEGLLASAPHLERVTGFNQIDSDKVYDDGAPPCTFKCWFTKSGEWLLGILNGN

[4] = target: T3, ANDV Gn/Gc (Andes virus glycoproteins from the full-length M segment, on the cell surface) (Andes virus, GenBank AF291703.2 …, UniProt Q9E006); test: flow cytometry on cells; conditions: one partner purified
T3 construct: source: Expi293F cells, transfected, on the cell surface
T3 sequence (Q9E006 whole entry, looked up): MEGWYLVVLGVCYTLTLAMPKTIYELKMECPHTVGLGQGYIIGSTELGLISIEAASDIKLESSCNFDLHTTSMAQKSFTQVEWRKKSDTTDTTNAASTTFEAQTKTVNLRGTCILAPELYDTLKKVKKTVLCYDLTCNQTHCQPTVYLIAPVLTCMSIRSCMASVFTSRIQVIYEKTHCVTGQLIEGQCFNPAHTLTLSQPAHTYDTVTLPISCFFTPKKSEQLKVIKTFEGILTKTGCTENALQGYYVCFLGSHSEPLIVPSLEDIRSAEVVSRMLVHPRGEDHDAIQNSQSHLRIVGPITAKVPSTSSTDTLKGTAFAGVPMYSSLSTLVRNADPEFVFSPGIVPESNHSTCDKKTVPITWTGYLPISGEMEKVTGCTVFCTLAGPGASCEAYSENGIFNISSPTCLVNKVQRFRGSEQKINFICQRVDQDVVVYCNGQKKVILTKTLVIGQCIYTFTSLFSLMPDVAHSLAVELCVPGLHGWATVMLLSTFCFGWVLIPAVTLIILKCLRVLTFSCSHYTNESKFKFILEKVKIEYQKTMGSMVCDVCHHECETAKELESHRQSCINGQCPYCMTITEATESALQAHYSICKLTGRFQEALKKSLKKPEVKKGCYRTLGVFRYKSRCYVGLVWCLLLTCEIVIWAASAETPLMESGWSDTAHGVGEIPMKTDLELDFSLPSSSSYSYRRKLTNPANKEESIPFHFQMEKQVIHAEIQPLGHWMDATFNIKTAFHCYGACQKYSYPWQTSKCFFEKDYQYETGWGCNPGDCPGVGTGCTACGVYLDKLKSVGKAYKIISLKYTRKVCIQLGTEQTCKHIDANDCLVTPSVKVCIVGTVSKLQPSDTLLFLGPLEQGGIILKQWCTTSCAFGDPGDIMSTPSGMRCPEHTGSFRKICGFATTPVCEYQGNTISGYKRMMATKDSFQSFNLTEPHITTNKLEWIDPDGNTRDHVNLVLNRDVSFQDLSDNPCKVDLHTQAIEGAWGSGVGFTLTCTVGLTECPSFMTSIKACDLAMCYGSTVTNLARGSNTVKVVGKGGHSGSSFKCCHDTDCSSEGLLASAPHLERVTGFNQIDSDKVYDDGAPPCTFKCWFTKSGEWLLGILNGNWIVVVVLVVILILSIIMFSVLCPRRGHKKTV

T1 sequence (Q9E006 375-484): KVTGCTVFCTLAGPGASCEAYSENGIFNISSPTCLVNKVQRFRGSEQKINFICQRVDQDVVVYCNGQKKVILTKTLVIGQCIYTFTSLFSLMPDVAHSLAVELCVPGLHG

Binder | binding result [1] | binding result [2] | binding result [3] | binding result [4]
ANDV-34 (human monoclonal antibody, IgG1) (antibody, V domains shown, also called rANDV-34; source: ExpiCHO cells, transiently transfected, purified (HiTrap MabSelectSure); copies: 2 + 2) VH: QVHLVQSGGELRKPGSSVKVSCKASGGTFSSFAITWLRQAPGQGLEWVGAYIPVFGSAIHGQKVHGRVTLTADESTTTAYMELSSLRSEDTAVYFCARGPTQNWEYSYYTYFESWGQGTLVTVSS VL: QIVLTQSPGTLSLSPGERATLSCRASQSVTSRYLAWYQQKPGQAPRLLIYDTSSRATGIPDRFSGSGSETDFTLTISRLAPEDFAVYYCQQYGTSPAVTFGQGTRLEIK | no binding | no binding | no binding | binds
ANDV-5 (human monoclonal antibody, IgG1) (antibody, V domains shown, also called rANDV-5; ANDV-5 IgG; source: ExpiCHO cells, transiently transfected, purified (HiTrap MabSelectSure); copies: 2 + 2) VH: QVQLLQSGAEVKKPGSSVRVSCQSSGDIYNYYGISWVRQAPGQGLEWMGGIIPVYGRPNYVQKFRGRVTFTVDKSTSTAYMELSTLRADDTAVYYCARDTARSHYFGSGNDYGMDVWGQGTTVIVSS VL: DIVMTQSPLSLPVTPGEPASISCRSSQSLLHSNGFNFVDWYLQKPGQSPQLLIYLGSTRASGVPDRFSGSGSGTDFTLEISRVEAEDVGVYYCMQALQFPRTFGQGTKLDIK | binds | no binding | no binding | binds
ANDV-5 Fab (Fab, V domains shown, also called Fab ANDV-5; Fab form of ANDV-5; source: ExpiCHO cells, transiently transfected, purified (CaptureSelect CH1-XL)) VH: QVQLLQSGAEVKKPGSSVRVSCQSSGDIYNYYGISWVRQAPGQGLEWMGGIIPVYGRPNYVQKFRGRVTFTVDKSTSTAYMELSTLRADDTAVYYCARDTARSHYFGSGNDYGMDVWGQGTTVIVSS VL: DIVMTQSPLSLPVTPGEPASISCRSSQSLLHSNGFNFVDWYLQKPGQSPQLLIYLGSTRASGVPDRFSGSGSGTDFTLEISRVEAEDVGVYYCMQALQFPRTFGQGTKLDIK |  |  |  | binds
